# Data as given in the nanobody polyreactivity screen of Harvey et al. (2022).
# Experiment: yeast display, Sf9 membrane polyspecificity reagent, FACS + sequencing; frameworks hold sequencing errors
# Summary of the method: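 A nanobody's polyreactivity label depends on the gate it was sorted from. Yeast display cells were stained with 10% biotinylated, detergent-solubilized Sf9 membrane reagent for 1 hour at 4 °C, enriched on streptavidin microbeads and sorted by FACS. The low and high (top ~1%) gates were set on anti-HA fluorescence for expression and streptavidin fluorescence for reagent binding.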
row,Sequence,polyreactivity (PSR sort gate)
1,QVQLVESGGGLVQAGGRLRLICAASGSIFVSYALGWYRQAPGKERELVAAISTTGGRTRYADSVKGRFTISRDNAQNTVYLQMNSLKPEDTAVYYCAAVGARKMYYWGQGTQVTVSS,high polyreactivity
2,QVQLVESGGGLVQAGGRLRLICAASGSTFVINDMGWYRQAPGKERELVASISWSGGDTYYADSVKGRFTISRDNAKNTVYLQMNSLKPEDTAVYYCNRVSPYGSYDYWGQGTQVTVSS,low polyreactivity
3,QVQLVESGGGLVQAGGRLRLRCDPSGLTSYYAMGWYRQAPGKERELVSRIRSRSGSTYYADSVKGRFTISRDNAKNTVYLQMNSLKPEDTAVYYCNARQLLYAIRDSWGQVTQVTVSS,high polyreactivity
4,QVQLVESGGGLVQAGGRLRLSCAASARIFYSKVMGWYRQAPGKERELVAAISGRTGGTYYADSVKGRFTISRDNAKNTVYLQMNSLKPEDTAVYYCAARVIDYYGSGPYDYWGQGTQVTVSS,low polyreactivity
5,QVQLVESGGGLVQAGGRLRLSCAASGAIFDRNVMGWYSQAPGQERELVAAISGSGGRTYYADSVKGRFTISRDNAKNTVYLQMNSLKPEDTAVYYCAARAFRVVPGGDYWGQGTQVTVSS,high polyreactivity
6,QVQLVESGGGLVQAGGRLRLSCAASGCTSGLNVRGWYRQAPGQERELVAAMSTGGGSTYYADSVKGPFTISRDNAKNTVYLQMTSLQPEDTAVYYCAADQSSVQDFIYNYWAQGTQVTVSS,low polyreactivity
7,QVQLVESGGGLVQAGGRLRLSCAASGFIFGSYAMGWYRQAPGKERELVAVISSSGGRTYYADSVKGRFTISRDNAKNTVYLQMNSLKPEDTAVYYCNAKSRLFPTYRIYDYWGQGTQVTVSS,high polyreactivity
8,QVQLVESGGGLVQAGGRLRLSCAASGFIFKQYVMGWYRQAPGKERELVAAISRSGGSTYYADSVKGRFTISRDNAKNTVYLQMNSLKPEDNAVYYCNADNYYPDYDSWGQGTQVTVSS,high polyreactivity
9,QVQLVESGGGLVQAGGRLRLSCAASGFIFLNYTMGWYRQAPGKEREMVADISNGSDRTYFADSLKGRFTISRENAKNTVYLQMNSLKPEDTAVYYCAKDRDFSSPPTESGFDYWGQGTQVTVSS,low polyreactivity
10,QVQLVESGGGLVQAGGRLRLSCAASGFIFPLYAMGWYRQAPGKERELVAAIRASSGSTYYADSVKGRFTISRDNAKNSVYLQMNSLKPEDTAVYYCNARQYVWYPYEYWGQGTQVTVSS,high polyreactivity
11,QVQLVESGGGLVQAGGRLRLSCAASGFIFWTYAMGWYRQAPGKERELVARISWSGGSTYYADSVKGRFTISRDTAKNTVYLQMNSLKPEDTAVYYCARLATLYESIEYDYWGQGTQVTVSS,low polyreactivity
12,QVQLVESGGGLVQAGGRLRLSCAASGFIHYAMGWYRQAPGNERELVAAIRHSGGSTYYADSVKGRFTISRDNANNTVYIHMNSLKPEDTAVYYCAASRSGVGYRMQYWGQGTQVTVSS,low polyreactivity
13,QVQLVESGGGLVQAGGRLRLSCAASGFKYAMGWYRQGPGKDRELVAAISSGGITSYADSVKGRFTISRDNAKNTVYLQMNSLKPEDTAVYYCNARLRHSQYAYYYWGQGTQVTVSS,high polyreactivity
14,QVQLVESGGGLVQAGGRLRLSCAASGFTCGVYDMGWYRQAPGKERALVADIDFTGGDTYYADSVKGRFTISRDNAKNTVYLQMIRLKPEDTAVYYCAARSWGVIYDYFYLGLDYWGQGTQVTVSS,low polyreactivity
15,QVQLVESGGGLVQAGGRLRLSCAASGFTFGDNAMGWYRQAPGKERELVAAITSSGSTNYADSVKGRFTISRDNAKNTVYLQMNSLKPEDTAVYYCNAEDSVDAPVYKDLGSEYDSWGQGTQVTVSS,low polyreactivity
16,QVQLVESGGGLVQAGGRLRLSCAASGFTFHNNVMGWYRQAPGKERELVATISKSGGSTYYADSVKGRFTISRDHAKNTVYLQMNSLKPEDTAVYYCARRYRDYGRYGYWGQGTQVTVSS,high polyreactivity
17,QVQLVESGGGLVQAGGRLRLSCAASGGIFRRNAMGWYRPAPGKERELVAAISRSGGRTYYADSVKGRFTISRDNAKTSVYLQMNSLKPEDTAVYYCNADYGTRAGVDYWGQGTQVTVSS,low polyreactivity
18,QVQLVESGGGLVQAGGRLRLSCAASGGIFSAYAMGWYRQAPGTERELVAAISSGGSTKYADSVKGRVTISRDNAQNTVYLQMNSLKPEDTAVYYCAVLYIRWYTYEYWGQGAQVTVSS,high polyreactivity
19,QVQLVESGGGLVQAGGRLRLSCAASGGTFYLIAMGWYIQAPGKERELVAAISGSGTSTYYADSVKGRFTISRDNAKNTVYLQMNSLKPEDTAVYYCAADGTYFYIYLGDRFDYWGQGTQVTVSS,low polyreactivity
20,QVQLVESGGGLVQAGGRLRLSCAASGIIFPRYAMGWYRQAPGKERELVAAISGSGVGTYYADSVKGRFTISRDYAKNTVYIQMNSLKPEDTAVYSCATRYQWGGPYYRYDYWGQGTQVTVSS,high polyreactivity
21,QVQLVESGGGLVQAGGRLRLSCAASGIIFYVYTMGWSRQAPGKERELVAAISGSGGSTTYADSVKGRFTISRDNAKNTVYLQMNSLKPEDTAVYYCNAKKWFYRWWKFSEFDYWGQGTQVTVSS,high polyreactivity
22,QVQLVESGGGLVQAGGRLRLSCAASGIIIDYYTMGWYRQAPGKERELVAAINKSGGSTYADSVKGRFTISRDNAKNTVYLQMNSLKPEDTAVYYCAAEVDYSYWPEYARKYYYWGQGTQVTVSS,low polyreactivity
